From patent US20200138870A1, “RECREATION OF PANCREATIC NICHE ALLOWS FOR NOVEL METHODS FOR HUMAN, MATURE BETA DERIVATION FROM PLURIPOTENT STEM CELLS” (Baylor College of Medicine, priority 2016, published 2020) come the findings set out here.

Assay type in all cases: cell-based, human
Experiment [1] relates to hESC-derived EPs. As to the kind of experiment: Growth factor treatment of hESC-derived EPs for 3 days, immunofluorescence quantification of marker-positive cells. As for the experimental part: hESC, ISL1-EGFP Hues8 and H1, were maintained under a feeder-free system on Geltrex (Invitrogen) in TeSR-E8 media (Stemcell Technologies). Cells were passaged at 70-80% confluence using TrypLE (Invitrogen). After dissociation, cells were seeded in TeSR-E8 media+10 μM Y-27632 for 24h. Differentiation was started when cells were 90% confluent. The following media and growth factors/small molecules (see also Table 3) were used: Day1: MCDB-131 media with 0.1% BSA+10 mM glucose+ActivinA and CHIR99021. Day2-3: MCDB-131 media+0.1% BSA+10 mM glucose+ActivinA. Day4-5: MCDB-131+0.1% BSA, 10 mM glucose, VitC+KGF. Day6-9: MCDB-131 2% BSA+5.5 mM glucose+Vit.C+ITS (Invitrogen)+ActivinA+KGF+RA+SANT-1+Noggin. Day10-12: MCDB-131+2% BSA+5.5 mM glucose+VitC+ITS+SANT-1+Noggin+PdBU. Day13-15: MCDB-131+2% BSA+5.5 mM glucose+VitC+ITS+Noggin+AlK5i. EPs were dissociated and seeded as 25,000 cells/well on Geltrex-coated 96-well plates in DMEM media (Invitrogen) with B27 Supplement (Thermo Fisher Scientific), later called B27 media, supplemented with 10 µM Y-27632 for 24h. Growth factors (Table 3) were added to B27 media, at two concentrations, and tested on EPs for 3 days. After 3 days, cells were PBS washed, fixed with 4% PFA/PBS for 20 min at room temperature (RT), washed twice with PBS and stained.
Cells were incubated with 5% donkey serum (Jackson ImmunoResearch Laboratories) in PBST (PBS+0.1% Triton-X) for 30 min to avoid nonspecific binding of the antibody and to permeabilize the cells. Primary antibodies, diluted in 5% donkey serum in PBST, were then added and incubated at 4° C. overnight with shaking. After primary antibody incubation, cells were washed 3 times with PBST and secondary antibodies conjugated with Alexa-Fluor Dyes (Jackson ImmunoResearch Laboratories) and diluted in 5% donkey serum in PBST were added to the cells for 30 min at RT. Then, cells were thrice washed with PBST and nuclei were stained with Dapi (Roche Diagnostics). For imaging, Leica DMI6000 or confocal Leica TCS SPE was used. Images were initially processed by LAS X software and then further analyzed and quantified using ImageJ software (NIH, W Rasband, http://rsb.info.nih.gov/ij) using cell counter plug-in. Typically, at least 5 randomly selected images were counted per condition.

Experiment [2] relates to EPs. In words: Scratch assay (cell migration). To be noted: 100 or 500 ng/ml WNT5A, 30h. How it is done: EPs were dissociated and seeded into 12 well-plate to reach 90% confluence before a scratch was made. 200 μl pipette tip was used to create a smooth scratch and followed by 3h of mitomycin C treatment. Cells were then washed thrice with PBS and B27 media with or without WNT5A was added. Pictures of the scratch wound were taken at 0, 6, 12, 18, 24 and 30h after scratch to observe cell migration. Pictures were analyzed by counting cells migrating into the gap using ImageJ.

For experiment [3], the system named is hESC-derived EPs. As to the kind of experiment: Transwell migration and chemotaxis assay. To be noted: 100, 500 ng/ml WNT5A in bottom well. How it is done:
Transwell assays were performed using FluoroBlock Insert, […] pore size (Corning). The bottom 24 wells and the insert of transwell were coated with Geltrex to retained cells. At the experiment day, 1.5×10^5 hESC-derived EPs were seeded in each well at the transwell insert in B27 media with 10 μM Y-27632 and the well bottoms were replenished with either B27 media as control, B27 media+100 or 500 ng/ml WNT5A, or conditional media from Wk9.1, 17.5h and 20.1. After one week, the cell attached to the bottom wells were stained with Dapi and were counted.

Experiment [4] deals with JNK. As to the kind of experiment: Western blot for phosphorylated JNK and total JNK. To be noted: short-term (12h) treatment, 500 ng/ml WNT5A. How it is done: ISL1-EGFP hESCs were differentiated into EPs and first balanced with basal media (DMEM with 1% BSA and NEAA) for 6h and then treated with 500 ng/ml WNT5A in basal media. After 12h, cell lysates were collected as imilion of EPs were pelleted, PBS washed and resuspended in 250 μl of lysis buffer (10 mM HEPES pH7.5, 10 mM MgCl2, 5 mM KCl, 0.1 mM EDTA pH8, 0.1% TritonX-100, 0.2 mM PMSF, 1 mM DTT, 1 tab of Complete Protease Inhibitor Cocktail (Roche)). Cell lysates were centrifuged 12,000 g at 4° C. for 15 min and their supernatants were collected. BCA assay were performed using Pierce BCA protein assay kit (Thermo) to determine protein concentration. For Western blot, […] of protein were denatured with 4x Laemmeli buffer (40% glycerol, 8% SDS, 240 mM Tris-HCl pH6.8, 5% β-mercaptoethanol, 12.5 mM EDTA, 0.04% bromophenol blue) at 95° C. 3 min and resolved in 8% SDS-PAGE. PVDF membranes (BioRad) were used for transfer and membrane were blocked with 5% BSA in Tris-buffered saline with 1% Tween 20 (TBST) for 1h before applying primary antibody. Membranes were washed thrice for 10 min and anti-rabbit IgG-HRP (GE Life Science) were added for 3h at RT, followed by three washes. HyGLO™ Quick Spray Chemiluminescent HRP Antibody Detection Reagent (Denville Scientific Inc.) was used to detect antigen and the membrane was developed using CL-XPosure Film (Thermo Scientific). […]

B1: WNT5A: secreted growth factor from the human pancreatic niche (R&D), used at 100 or 500 ng/ml (protein)
chain: IIGAQPLCSQLAGLSQGQKKLCHLYQDHMQYIGEGAKTGIKECQYQFRHRRWNCSTVDNTSVFGRVMQIGSRETAFTYAVSAAGVVNAMSRACREGELSTCGCSRAARPKDLPRDWLWGGCGDNIDYGYRFAKEFVDARERERIHAKGSYESARILMNLHNNEAGRRTVYNLADVACKCHGVSGSCSLKTCWLQLADFRKVGDALKEKYDSAAAMRLNSRGKLVQVNSRFNSPTTQDLVYIDPSPDYCVRNESTGSLGTQGRLCNKTSEGMDGCELMCCGRGYDQFKTVQTERCHCKFHWCCYVKCKKCTEIVDQFVCK
Take B1: in experiment [1] (100 ng/ml of WNT5A (30% in B27)), the “number of INS+ cells” value came to 39%. The “number of INS+ cells” value in experiment [1] (500 ng/ml WNT5A (30% in B27)) is on record as 60%. Moreover, in experiment [1] (3-day EP treatment, vs untreated control), the “decrease in the number of GCG+ cells” value came out at 3 fold. In experiment [1] (3 days treatment of EPs), the “average increase in number of cells positive for all test markers” value stood at 5 fold; the “numbers of ISL1-eGFP, CHGA+, INS+ and C-peptide+ cells over untreated controls (in words)” value is “increased”. In experiment [1] (WNT5A in different combinations at 500 ng/ml, 3 days), the “number of INS+ cells among all factors and combinations tested (in words)” value was “consistently and most significantly increased”. Also, in experiment [1] (growth factors alone or in combination), the “fold increase in number of ins+ cell generate from hESCs” value turned out to be 6 fold. Moreover, the “cell mobility in scratch assays (in words)” value in experiment [2] was “no increase in cell mobility”. For the same molecule, the “chemoattractant activity on EP migration (in words)” value in experiment [3] was “does not act as a chemoattractant”. Besides, in experiment [4], the “JNK expression and phosphorylation (in words)” value is listed as “increased”.
